Results on four molecules are retold here after patent publication US20170210813A1 (Regeneron, published 2017).

Assay [1] addresses T1, PDGFR-beta extracellular domain construct D1-D2 (human).
T1 construct: also called D1-2
T1 chain: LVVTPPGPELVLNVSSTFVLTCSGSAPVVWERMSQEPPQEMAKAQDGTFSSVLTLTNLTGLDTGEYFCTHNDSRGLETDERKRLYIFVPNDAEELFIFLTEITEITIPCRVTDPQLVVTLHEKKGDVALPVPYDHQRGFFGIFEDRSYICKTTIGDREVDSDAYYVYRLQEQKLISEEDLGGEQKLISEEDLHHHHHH
Put plainly: SPR, mAb captured, construct at 50nM. Here is the method:
(§1) Four different anti-PDGFR-beta antibodies were tested for binding to the various constructs by surface plasmon resonance (Biacore). Briefly, 150-200 RU's of anti-PDGFR beta antibody was captured via an anti-human Fc CM5 chip. Next, the individual domain constructs, or full-length PDGFR beta, was applied over the antibody-bound surface at a concentration of 50nM. The ability of the various antibodies to bind to the various domain constructs was measured. (−)=No binding observed; (+)=Binding observed; ND=Not determined.
(In general: In SPR one partner is held on a chip, and binding of the other changes the refractive index at the surface.)

Assay [2] concerns the target T2, PDGFR-beta extracellular domain construct D1-D3 (human).
T2 construct: also called D1-3
T2 chain: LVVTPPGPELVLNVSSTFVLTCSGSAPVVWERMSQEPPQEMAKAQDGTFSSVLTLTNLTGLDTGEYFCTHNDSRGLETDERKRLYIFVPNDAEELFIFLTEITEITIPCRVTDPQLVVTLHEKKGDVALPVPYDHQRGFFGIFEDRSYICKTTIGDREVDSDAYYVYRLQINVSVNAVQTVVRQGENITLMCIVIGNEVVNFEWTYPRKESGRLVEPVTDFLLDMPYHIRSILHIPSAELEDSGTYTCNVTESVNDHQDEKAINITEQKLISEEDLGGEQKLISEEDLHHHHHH
Put plainly: SPR, mAb captured, construct at 50nM. Here is the method: as §1

Assay [3] addresses T3, PDGFR-beta extracellular domain construct D1-D4 (human).
T3 construct: also called D1-4
T3 chain: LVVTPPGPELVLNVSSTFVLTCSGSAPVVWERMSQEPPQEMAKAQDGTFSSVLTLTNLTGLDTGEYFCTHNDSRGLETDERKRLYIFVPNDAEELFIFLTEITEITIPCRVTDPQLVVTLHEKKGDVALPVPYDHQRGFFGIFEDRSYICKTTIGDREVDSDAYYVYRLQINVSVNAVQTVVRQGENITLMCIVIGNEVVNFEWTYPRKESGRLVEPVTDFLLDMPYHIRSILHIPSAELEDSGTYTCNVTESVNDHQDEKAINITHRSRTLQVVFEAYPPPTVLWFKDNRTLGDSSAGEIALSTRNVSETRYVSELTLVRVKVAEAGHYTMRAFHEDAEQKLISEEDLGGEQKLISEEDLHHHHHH
Put plainly: SPR, mAb captured, construct at 50nM. Here is the method:
as §1

For assay [4], the target named is T4, PDGFR-beta extracellular domain construct D1 (human).
T4 chain: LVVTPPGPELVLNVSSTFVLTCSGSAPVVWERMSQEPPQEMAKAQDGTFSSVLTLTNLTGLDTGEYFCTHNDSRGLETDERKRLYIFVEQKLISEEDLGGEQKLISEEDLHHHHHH
Kind of assay: SPR, mAb captured, construct as analyte. Here is the method:
as §1

Assay [5] deals with T5, hPDGFRb.mmh (human, UniProt P09619 33-531).
T5 construct: Soluble monomeric construct; also called soluble human PDGFR-beta.mmh
Put plainly: blocking ELISA, biot-hPDGFRb.mmh to coated PDGF-BB. (In general: In an ELISA, binding on a coated surface is turned into a signal by an enzyme label.)

In assay [6] the target is T5, hPDGFRb.mmh. Put plainly: Octet BLI cross-competition, 25 C; hPDGFRb.mmh on anti-Penta-His tips pre-saturated with mAb-1 H4H3305N (row 8). In short, it runs like this: (§2)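 On an Octet RED384 in HBST at 25 °C and 1000 rpm, hPDGFRβ.mmh-coated tips were saturated for 5 min with mAb-1 at 50 μg/mL. A second antibody was then applied, and its real-time binding to the pre-complexed receptor was monitored.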
For orientation: Biolayer interferometry detects binding as a change in optical thickness at a sensor tip.

For assay [7], the target named is T5, hPDGFRb.mmh. Kind of assay: Octet BLI cross-competition, 25 C; hPDGFRb.mmh on anti-Penta-His tips pre-saturated with mAb-1 Control I (row 1). The method in brief: as §2
For assay [8], the target named is T1, PDGFR-beta extracellular domain …. Kind of assay: SPR, mAb captured, construct as analyte. As to the method:
as §1

The target of assay [9] is T2, PDGFR-beta extracellular domain …. Kind of assay: SPR, mAb captured, construct as analyte. Here is the method:
as §1

In assay [10] the target is T3, PDGFR-beta extracellular domain …. Put plainly: SPR, mAb captured, construct as analyte. As to the method:
as §1

B1: H4H3374N (antibody, human IgG4, V domains shown)
VH: QLQLQESGPGLVKPSETLSLTCTVSGGSITSSSYYWGWIRQPPGKGLEWIGSIYYRGSTNYNPSLKSRVTISVDSSKNQFYLKVSSVTAVDTAVYYCARQNGAARPSWFDPWGQGTLVTVSS
VL: EIVLTQSPDTISLSPGERATLSCRASQSISSIYLAWYQQKPGQAPRLLIYGASSRVTGIPDRFSVSGSGTDFTLTISRLEPEDFAVYYCQHYGISPFTFGPGTKVDIR
notes: human IgG4 Fc (H4H prefix)
A word on the IC50: it is the midpoint of a concentration-inhibition curve. A low value points to greater potency in that assay. For the molecule B1, the binding result in assay [1] is “binds”; in [2] it was “binds”; in [3], “binds”; in assay [4], “no binding (tested: 50nM)”. Further, the “% Maximum Blocking” value with hPDGFRb.mmh [5] came out at 86%. In addition, in the assay with hPDGFRb.mmh [5], the midpoint of inhibition, the IC50, lay at 0.12 nM. The “Response of mAb-2 Binding to hPDGFRβ.mmh Pre-Complexed with mAb-1 (nm)” value (“Response of mAb-2 Binding” below) with hPDGFRb.mmh [6] stood at 0.27 nm.

B2: H4H3094P (antibody, human IgG4, V domains shown)
VH: EVQLVESGGGLVQPGGSLRLSCAASGFTFSSYWMSWVRQAPGKGLEWVANMNQDGSETHYVDSVKGRLSISRDNAKKSLFLHMNSLRAEDTAVYFCARDLVPPRQDDYYYYFGMDVWGHGTTVTVSS
VL: DIQMTQSPSTLSASVGDRVTITCRASQSISDWLAWYQQKPGKAPKLLIFKASTLESGVPSRFSGSGSGTEFTLTISSLQPDDFATYYCQQYNSYSRTFGQGTKVEIK
notes: also called H4H3394P
Consider B2, for which the binding result in [1] is listed as “binds”; in assay [2], “binds”; in [3], “binds”; in [4] it was “no binding (tested: 50nM)”. The “% Maximum Blocking” value in the assay with hPDGFRb.mmh [5] worked out at 85%. The same molecule displayed an IC50 in the assay with hPDGFRb.mmh [5] of 0.12 nM. Further, the figures for the “Response of mAb-2 Binding” value with hPDGFRb.mmh [6] and with hPDGFRb.mmh [7] were 0.25 nm and -0.01 nm, respectively.

B3: H4H3099S (antibody, human IgG4, V domains shown)
VH: QITLKESGPTLVKPTQTLTLTCTFSGFSLTTTGVGVGWIRQPPGKALEWLALIYWNDLKRYSPSLKNRLTITKDTSRHQVVLTMTNMDPMDTATYYCAHRPLYYGSGSGWFDPWGPGTTVTVSS
VL: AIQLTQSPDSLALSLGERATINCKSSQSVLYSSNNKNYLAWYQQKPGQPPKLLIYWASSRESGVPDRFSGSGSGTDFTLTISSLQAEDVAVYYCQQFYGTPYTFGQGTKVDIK
notes: human IgG4 Fc (H4H prefix)
As to B3, the binding result in assay [4], in assay [8], in [9] and in [10] was “no binding (tested: 50nM)” throughout. Moreover, the “% Maximum Blocking” value with hPDGFRb.mmh [5] stood at 91%. Also, in the assay with hPDGFRb.mmh [5], half-maximal inhibition (IC50) required 0.097 nM. Besides, the “Response of mAb-2 Binding” value in the assay with hPDGFRb.mmh [7] is 0.28 nm.

B4: H4H3305N (antibody, human IgG4, V domains shown)
VH: QLQLQESGPGLVKPSETLSLTCIVSGGSISSSSYYWGWIRQPPGKGLEWIGSLYYSGITFYNPSLKSRVTISVDTSKNQFSLTLTSVTAADTAVFYCARHRVMASSPFDHWGQGTLVTVSS
VL: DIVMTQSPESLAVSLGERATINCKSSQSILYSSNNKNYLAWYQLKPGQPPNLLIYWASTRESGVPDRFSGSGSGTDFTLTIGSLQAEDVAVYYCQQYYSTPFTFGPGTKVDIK
notes: human IgG4 Fc (H4H prefix)
Turning to B4, the binding result in [4], in assay [8], in [9] and in assay [10] was “no binding (tested: 50nM)” throughout. Also, the “% Maximum Blocking” value in the assay with hPDGFRb.mmh [5] came out at 86%. Also, half-maximal inhibition in the assay with hPDGFRb.mmh [5] (IC50) was put at 0.3 nM. Moreover, the “Response of mAb-2 Binding” value with hPDGFRb.mmh [7] stood at 0.22 nm.
